Test results from patent US20130171133A1 (IMPERIAL INNOVATIONS, published 2013).

Legend:
[1] = target: T1, EphA2 (from cell lysates) (human, UniProt P29317 24-976); assay: co-IP and reciprocal co-IP, FIG. 17A
T1 construct: whole, on cells; Tested by co-immunoprecipitation from cell lysates

[2] = target: HER2 (full length, from SK-OV-3 derived cell lysates) (human, UniProt P04626 23-1255); assay: cell-based or functional assay
[3] = target: T2, FGFR1 (full length, from cell lysates; endogenous or SK-OV-3 cells transiently transfected with FGFR1 cDNA) (human, UniProt P11362 22-822); assay: co-IP with OPCML Ab, immunoblot with anti-FGFR1 ECD Ab, FIG. 2A(ii)
T2 construct: whole, on cells; Tested from detergent cell lysates (co-IP, GST pull-down); also called fibroblast growth factor receptor 1
Method: Cell layers were washed in PBS and incubated for 30 minutes in lysis buffer (1% TritonX-100, 10 mM Tris pH8.0, 150 mM NaCl, 2.5 mM MgCl₂, 5 mM EGTA, 1 mM Na₃VO₄, 50 mM NaF and […] (Roche). Cell Lysates were then cleared by centrifugation at 13,000 rpm for 20 minutes at 4° C. and aliquots containing equal amounts of protein were incubated with the appropriate antibody before addition of secondary antibody conjugated to sepharose resin. Beads were then washed 3× with lysis buffer and eluted by heating for 5 minutes in […] of SDS sample buffer.

T2 sequence (P11362 22-822): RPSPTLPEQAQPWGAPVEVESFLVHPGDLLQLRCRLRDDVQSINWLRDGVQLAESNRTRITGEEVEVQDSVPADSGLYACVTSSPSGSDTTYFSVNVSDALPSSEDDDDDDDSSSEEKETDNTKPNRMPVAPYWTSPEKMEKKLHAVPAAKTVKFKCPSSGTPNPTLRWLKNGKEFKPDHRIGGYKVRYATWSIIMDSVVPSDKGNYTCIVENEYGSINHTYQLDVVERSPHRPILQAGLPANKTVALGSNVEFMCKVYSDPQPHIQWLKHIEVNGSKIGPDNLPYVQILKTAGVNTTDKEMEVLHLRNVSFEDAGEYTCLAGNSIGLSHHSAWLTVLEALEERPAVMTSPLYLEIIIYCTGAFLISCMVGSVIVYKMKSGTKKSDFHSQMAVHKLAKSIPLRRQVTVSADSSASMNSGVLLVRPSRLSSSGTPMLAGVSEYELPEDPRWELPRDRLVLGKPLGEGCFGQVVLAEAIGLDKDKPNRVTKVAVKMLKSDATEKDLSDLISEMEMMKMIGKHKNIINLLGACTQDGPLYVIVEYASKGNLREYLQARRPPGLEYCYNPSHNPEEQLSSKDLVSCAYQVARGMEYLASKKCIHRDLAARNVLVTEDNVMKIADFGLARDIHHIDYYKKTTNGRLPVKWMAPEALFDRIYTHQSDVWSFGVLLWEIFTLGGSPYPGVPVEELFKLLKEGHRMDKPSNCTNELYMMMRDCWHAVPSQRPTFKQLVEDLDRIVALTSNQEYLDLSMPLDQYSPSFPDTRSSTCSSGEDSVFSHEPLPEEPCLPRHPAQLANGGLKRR

binding result [1]: binds | fold decrease in effective concentration of lapatinib required to abolish the EGF induced phospho-ERK signal, BKS2.1 against SKOBS-V1.2 [2]: 10 fold | binding result [3]: binds
B1: OPCML (opioid binding protein cell adhesion molecule), human, expressed in cells (stably transfected SK-OV-3 lines BKS2.1 and SKOBS-3.5) (other)
chain: GVPVRSGDATFPKAMDNVTVRQGESATLRCTIDDRVTRVAWLNRSTILYAGNDKWSIDPRVIILVNTPTQYSIMIQNVDVYDEGPYTCSVQTDNHPKTSRVHLIVQVPPQIMNISSDITVNEGSSVTLLCLAIGRPEPTVTWRHLSVKEGQGFVSEDEYLEISDIKRDQSGEYECSALNDVAAPDVRKVKITVNYPPYISKAKNTGVSVGQKGILSCEASAVPMAEFQWFKEETRLATGLDGMRIENKGRMSTLTFFNVSEKDYGNYTCVATNKLGNTNASITLYGPGAVIDGVN
modifications: GPI anchor at N322; N-linked glycosylation
notes: Full OPCML cDNA in pcDNA3.1zeo, expressed in SK-OV-3 derived lines; immunoprecipitated from Triton X-100 cell lysates; also called OBCAM; OPCML polypeptide
